Laboratory results as given in the supplement of paper PMC9170038.

tested on: MS2 coat protein; assay: apparent KD of MS2 coat protein, switch OFF state (with FMN for OFF switches, without FMN for ON switches); designed switch direction (-1 OFF switch, 1 ON switch): 1; higher = weaker reporter binding; details: FMN input: 0 or 200 uM; Eterna round: R93 (includes R88 designs)
Summary of the method: (§1)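 With or without constant ligand, designed RNA switches in 100 mM Tris-HCl pH 7.5, 80 mM KCl and 4 mM MgCl2 were titrated with SNAP-549-labelled MS2 coat protein. Concentrations went up in twofold steps from 0.7 or 1.5 nM to 3 µM. The switches had been transcribed on-chip from Illumina sequencing clusters, and apparent KD is the per-design median of normalised cluster binding-curve fits.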

Row | Sequence | apparent KD of MS2 coat protein [nM]
1 | AGAAAUAAAAGAGAGGAUAUCCAAAAGAAAACAUGAGGAUCACCCAUGUAAAAGAAAAUAAAAUGGGAGAAGGCUCACAUAAAGA [Topaz 34] | 37.4
2 | AUGGUCAAGUGUGAGGAUAUCCAGGCUCCCACAUGAGGAUCACCCAUGUCUUAAAGGGCGUAAAGGGAGAAGGUACGAACGCCAC [Diatenat] | 46.8
3 | AAGAAACAUGAGGAUCACCCAUGUAAGAUAAACACAGGAUAUGCGAAAGAAACAAAAGAAGCAGAAGGGUGAAGAA [Mat - Same State 1 - Tesla mod - D146] | 29.4
4 | AAUAUACAUGAGGAUCACCCAUGUUAGGUGGGUCAAGGAUAUCAAUAUAAAUAAAAAACUUGAGAAGGUGAAUAAA [JR_SS001_Sub019] | 155
5 | AAAAAACAUGAGGAUCACCCAUGUAAUACAACAUCAGGAUAUUGGCUUUACUAUGUAUUACAAGAAGGGAUGAAAA [Same State 1.3c (Same State 1 - Omei 2 )] | 53.8
6 | AAUAUACAUGAGGAUCACCCAUGUUAGGUGGGACUAGGAUAUCAAAAUAAAUAAUGAACAUGAGAAGGAGUAUCAA [JR_SS001_Sub402] | 190
7 | UAUUAUUACACGAAGGAUAUCGAUAAUAGUACAUGAGGAUCACCCAUGUUCAAAUCAUUUUAGUACGAGAAGGUCGAGGGUAAAG [JR_SS002_Sub710] | 23.4
8 | AAAAAAUAAAAAAAGGAUAUAAAUGGUACAACAUGAGGAUCACCCAUGUAGUACCAAAAAAUAAAAAAGAAGGAAAAAUAAAAAA [SS2: MS2 22] | 23.7
9 | AAUAAUUAUAGCAAGGAUAUCGGUAUAAAGACAUGAGGAUCACCCAUGUAAUAUGGUUAAAUUUACGAGAAGGUGCAGGGUGAAA [JR_SS002_Sub009] | 142
10 | AAGAAACAUGAGGAUCACCCAUGUAGAAAUAUGGGAGGAUAUACAAGGACGGAAGUCAAGGUAGAAGGCCUAAGAA [Mat - Same State 1 - Meechl mod - D133] | 112
11 | AAAAAACAUGAGGAUCACCCAUGUCAAAAGACGUGAGGAUAUGUACAGACUUCGGUCUGUACAGAAGGCACAAAAA [SS1 - 1031] | 40.3
12 | GUAGAACAUGAGGAUCACCCAUGUGAGUACAGUGUAGGAUAUGGGCAUGAGAAGUCAUUUCUAGAAGGGCAAAUAA [Raatbiin] | 112
13 | AAGAAAGAAACAUAGGAUAUCAAGGAUAUAACAUGAGGAUCACCCAUGUAAAUACGAAAGUAUAAUGAGAAGGAUGGAUGAUCUAC [Meechl MS2 SS2 3] | 79.5
14 | AACAAUCUAUCUGAGGAUAUGUGUCGAAAGACAUGAGGAUCACCCAUGUAAAAACAUGAAAAGAUACAGAAGGCAGAUAGAUUGA [SS2: 1156] | 29.3
15 | UAAUAAUAAACCAAGGAUAUGGAGUAUAGAACAUGAGGAUCACCCAUGUGUAGCGUGGAAUAGUACCAGAAGGUGGAGUGAAAUG [JR_SS002_Sub1002] | 49.8
16 | GAAAAACAUGAGGAUCACCCAUGUGAAAAUAUGGGAGGAUAUACAAAGACGAAAGUCAAAGUAGAAGGCCUAAAAG [Mat - Same State 1 - Eli mod - D3] | 139
17 | GAAAAACAUGAGGAUCACCCAUGUGGAAAUAUGGAAGGAUAUACAAAGACGAGAGUCAAAGUAGAAGGUCUAAAAG [Mat - Same State 1 - Eli mod - D20] | 26.3
18 | AAAUAACAUGAGGAUCACCCAUGUUGCAACGGUAGAGGAUAUGUGGGUGAAAAUAGCAUGGCAGAAGGCUAGUGUA [SameState1 Malc#28] | 110
19 | AAAAAACAUGAGGAUCACCCAUGUCCUCGGACGUGAGGAUAUGUACAGACUUCGGUCUGUACAGAAGGCAUGAAAA [SS1 - 1059] | 201
20 | AAGAAACAUGAGGAUCACCCAUGUACCCAAAAGGGAGGAUAUGCGAAAGAAAGAAAGAAAGCAGAAGGCCCAUGAA [Artaxerxes I Longhand] | 25.3
21 | UUACAGUGCGGGUAGGAUAUGUAGGGUGGUACAUGAGGAUCACCCAUGUAUCCACCCUUCGACCGGCAGAAGGGCCUGUCACUAC [Atarzale] | 12.8
22 | AGAAAUAAAAGAGAGGAUAUUCAAAAGAAAACAUGAGGAUCACCCAUGUAAAAGAAAAUAAAUGGGAAGAAGGCUCAAAAUAAAG [Modifying JL's highscorer - Moving the G segment - Variant 2] | 26.2
23 | AAAGACAUGGUGUAGGAUAUAUUAAUAGUCACAUGAGGAUCACCCAUGUUCAUAUAUAUGAACGAGUAGAAGGACGAUGAAAAAA [SameState2 Malc#3] | 205
24 | AAAGAAUGAAGGCAGGAUAUGUGAAAAAAAACAUGAGGAUCACCCAUGUAAUAGAUGGUGAAAAGGCAGAAGGGCCAAGAAACAA [SS 2 Tesla 6] | 199
25 | GGGAGACAUGAGGAUCACCCAUGUGAGAAGAGGCGAGGAUAUCGAAAGAAAGAAGAGAAACGAGAAGGCGCGAGGC [salish99-SS1-063] | 53.6
26 | AGAAAUAAAAGGGAGGAUAUUCAAAAAGGGACAUGAGGAUCACCCAUGUAAAAGAAAAUAAAAUGGGAGAAGGCUCAAAAUAAAG [80%, More Helter Skelter 2] | 748

tested on: MS2 coat protein; assay: apparent KD of MS2 coat protein, switch OFF state (with FMN for OFF switches, without FMN for ON switches); designed switch direction (-1 OFF switch, 1 ON switch): -1; higher = weaker reporter binding; details: FMN input: 0 or 200 uM; Eterna round: R93 (includes R88 designs)
Summary of the method: as §1

Row | Sequence | apparent KD of MS2 coat protein [nM]
27 | AAAUAGUUAGGAUAUACAUGAGGAUCACCCAUGUGGACUUAUGGAGAAUAGUUUAAUGGUAGAAGGGACUAAAA [EX2 Malc#25] | 36.5
28 | AGCUGGUUAGGAUAUACAUGAGGAUCACCCAUGUUAAAAAAAAAAAAAAGAUUAAAGUGUAGAAGGGAUUAGUA [Banishment 9 - Jieux - Exclusion 3] | 34.4
29 | AAGAAGACAGGAUAUACUAAAGAAAUGAAAAGAAAGAAAGAACAUGAGGAUCACCCAUGUAGAAGGGUCAAGAA [Sewahenre Senebmiu] | 45.1
30 | AAAGGACGAGGAUAUACAUGAGGAUCACCCAUGUAAAAAACGUAAUAAAAGAACUUAUGUAGAAGGCGUCCAAA [69%, Moding Meechl, 7] | 221
31 | CGUUGGCGAGGAUAUACAUGAGGAUCACCCAUGUGAGAGAAAAAAGUGAGAAAGAAAAGUAGAAGGCGCUGACA [salish99-ex3-11] | 264
32 | AGUUGGCGAGGAUAUACAUGAGGAUCACCCAUGUGAGAGUAAAAAGUGAGAAAGAAAAGUAGAAGGCGCUCACA [JL Lego Mod 14] | 46.3
33 | UCCUGACAUGAGGAUCACCCAUGUCAGGAUAUAGUAUGAAAAAAAAAAAAAAAAAAUACUAGAAGGGACAUGGG [Design 12: Super Stable Short Helix 3] | 21.6
34 | GAAAAGUGAGGAUAUGUCAAAAGUCACAAAAGUGACAAAAGACAGAAGGCACAUGAGGAUCACCCAUGUGAAAG [Mat - Exaclusion 4 - Eli mod - D54] | 28.4
35 | AAAAAGUGAGGAUAUGCGAAGGCGUCUGAUAGACGAGGCUAGCAGAAGGCACAUGAGGAUCACCCAUGUGGGAG [Mat - Exclusion 4 - Eli mod - D93] | 148
36 | AAAGUACAUGAGGAUCACCCAUGUCAGGAUAUCGUGGCGGGAAAAACCGGGAAACGCACGAGAAGGGACAAAAA [EX1 Malc#18 Mod 13 - Jieux - Exclusion 1] | 42
37 | GGUUGAUGAGGAUAUACAUGAGGAUCACCCAUGUGAGAGAAAAAAGUGAGAAAGAAAAGUAGAAGGCAUUGACG [salish99-ex3-60] | 69.4
38 | AAGGGACAUGAGGAUCACCCAUGUCAGGAUAUGCUAUGGAAAAUAAAAAUAAAACAUAGCAGAAGGGACAAAAA [Denovo 4] | 53.1
39 | AAAAAGGGAGGAUAUACAUGAGGAUCACCCAUGUAAAAAAACGCGGGAGGGAGGGAAGGUAGAAGGCCCAAAAA [Excls3-IV] | 23
40 | CUCAAGUGAGGAUAUACAAAAAGUAAAUAAGUAAAACAAAAGUAGAAGGCACAUGAGGAUCACCCAUGUAAAUA [JR_Exc004_Sub301] | 63.1
41 | GGAGGCCAAGGAUAUACAUGAGGAUCACCCAUGUGAGAGAAAAAAGUGAGAAAGAAAAGUAGAAGGUGGUUUCG [salish99-ex3-129] | 131
42 | AAAAAUCGAGGAUAUACAUGAGGAUCACCCAUGUCAGAAAAUGACUACACAAAAGAAAGUAGAAGGCGAUAAAA [Ex 3 May 18] | 30.3
